Measured values: patent US20060094079A1

Molecular target: Human placental collagen, type III (Sigma) (human) (UniProt P02461)
Test: cell-based or functional assay

Sequence of UniProt P02461 (P02461 154-1221): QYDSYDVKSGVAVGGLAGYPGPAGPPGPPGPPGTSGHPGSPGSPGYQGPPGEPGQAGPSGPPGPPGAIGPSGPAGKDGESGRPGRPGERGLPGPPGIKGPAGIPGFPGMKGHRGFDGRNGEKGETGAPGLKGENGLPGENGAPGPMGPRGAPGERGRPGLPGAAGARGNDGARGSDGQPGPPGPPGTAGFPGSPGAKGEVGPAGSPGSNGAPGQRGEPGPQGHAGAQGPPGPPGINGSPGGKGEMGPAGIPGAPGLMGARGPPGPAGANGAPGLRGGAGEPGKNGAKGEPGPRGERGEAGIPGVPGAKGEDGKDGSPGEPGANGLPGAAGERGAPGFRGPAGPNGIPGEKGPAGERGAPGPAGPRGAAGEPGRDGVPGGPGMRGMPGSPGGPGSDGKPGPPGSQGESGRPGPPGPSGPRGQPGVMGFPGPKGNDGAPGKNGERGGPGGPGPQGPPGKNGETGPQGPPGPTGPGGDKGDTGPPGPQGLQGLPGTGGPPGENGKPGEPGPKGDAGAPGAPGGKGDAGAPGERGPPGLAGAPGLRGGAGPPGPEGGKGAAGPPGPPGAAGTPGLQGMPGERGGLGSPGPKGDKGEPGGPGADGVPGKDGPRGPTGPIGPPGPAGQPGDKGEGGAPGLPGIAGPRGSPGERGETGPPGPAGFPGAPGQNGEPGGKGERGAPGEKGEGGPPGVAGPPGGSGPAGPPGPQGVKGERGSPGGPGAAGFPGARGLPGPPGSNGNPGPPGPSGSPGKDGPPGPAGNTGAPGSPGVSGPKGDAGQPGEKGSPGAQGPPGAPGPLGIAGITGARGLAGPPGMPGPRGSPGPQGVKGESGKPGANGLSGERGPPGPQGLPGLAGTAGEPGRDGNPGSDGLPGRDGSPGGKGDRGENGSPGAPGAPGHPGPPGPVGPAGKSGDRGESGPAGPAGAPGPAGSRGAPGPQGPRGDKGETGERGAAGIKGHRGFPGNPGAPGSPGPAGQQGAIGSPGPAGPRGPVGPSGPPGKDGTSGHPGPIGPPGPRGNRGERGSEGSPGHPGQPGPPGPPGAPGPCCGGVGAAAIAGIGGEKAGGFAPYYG

**Q.** Which results are given for “Saratin (protein isolated from the saliva of the leech Hirudo medicinalis; 103 amino acids)”?
**A.** platelet binding on collagen type III coated surface pretreated with Saratin, whole human blood under flow (shear rate 1300 s-1): 80%; reduction in platelet deposition on collagen type III coated coverslips at a shear rate of 1300 s-1: 81%
